{"source": "paper PMC4666417", "about": "“Specific Interaction between eEF1A and HIV RT Is Critical for HIV-1 Reverse Transcription and a Potential Anti-HIV Target” (PLoS Pathogens, 2015)", "key": {"[1]": {"target": "HIV-1 Gag, 6xHis-tagged, purified (HIV-1)", "experiment": "BLI; biotinylated eEF1 subunit (eEF1A1, eEF1B, eEF1D or eEF1G) immobilised on streptavidin biosensor; RT subunits, RT heterodimer, Gag or RTp66 mutants as analytes at 90, 30 and 10 nM (mutants at 90 nM); kinetic buffer 1 mM phosphate, 15 mM NaCl, 0.002% Tween-20, 0.1 mg/ml gelatine, 1000 rpm, OctetRed", "conditions": "both partners purified"}, "[2]": {"target": "T1, HIV-1 RT p66, 6xHis-tagged, purified (gift) (HIV-1, UniProt P04585 588-1147)", "T1 construct": "source: E. coli, purified; gift", "experiment": "BLI; biotinylated eEF1 subunit (eEF1A1, eEF1B, eEF1D or eEF1G) immobilised on streptavidin biosensor; RT subunits, RT heterodimer, Gag or RTp66 mutants as analytes at 90, 30 and 10 nM (mutants at 90 nM); kinetic buffer 1 mM phosphate, 15 mM NaCl, 0.002% Tween-20, 0.1 mg/ml gelatine, 1000 rpm, OctetRed", "conditions": "both partners purified"}}}
{"binder": "eEF1A1 (eukaryotic elongation factor 1 subunit A1), MYC/DDK-tagged (natural protein, human, UniProt P68104 1-462, looked up, biotinylated with EZ-Link Sulfo-NHS-Biotin where immobilised on the biosensor, human eEF1A1, full-length; Used as analyte (a1, a2, a5) and, biotinylated, as immobilised ligand (a3); also called MYC/DDK-eEF1A1; purified eEF1A; source: HEK293 cells, bought: OriGene; not shown: MYC, C-terminal, kept; DDK, C-terminal, kept) MGKEKTHINIVVIGHVDSGKSTTTGHLIYKCGGIDKRTIEKFEKEAAEMGKGSFKYAWVLDKLKAERERGITIDISLWKFETSKYYVTIIDAPGHRDFIKNMITGTSQADCAVLIVAAGVGEFEAGISKNGQTREHALLAYTLGVKQLIVGVNKMDSTEPPYSQKRYEEIVKEVSTYIKKIGYNPDTVAFVPISGWNGDNMLEPSANMPWFKGWKVTRKDGNASGTTLLEALDCILPPTRPTDKPLRLPLQDVYKIGGIGTVPVGRVETGVLKPGMVVTFAPVNVTTEVKSVEMHHEALSEALPGDNVGFNVKNVSVKDVRRGNVAGDSKNDPPMEAAGFTAQVIILNHPGQISAGYAPVLDCHTAHIACKFAELKEKIDRRSGKKLEDGPKFLKSGDAAIVDMVPGKPMCVESFSDYPPLGRFAVRDMRQTVAVGVIKAVDKKAAGAGKVTKSAQKAQKAK", "values": [{"measurement": "Kd", "setting": "[1]", "value": "0.0215 ± 0.0111", "unit": "µM"}, {"measurement": "koff", "setting": "[1]", "value": 0.00188, "unit": "s⁻¹"}, {"measurement": "kon", "setting": "[1]", "value": 87500, "unit": "M⁻¹ s⁻¹"}, {"measurement": "Kd", "setting": "[2]", "value": "0.00319 ± 0.00108", "unit": "µM"}, {"measurement": "koff", "setting": "[2]", "value": 0.000222, "unit": "s⁻¹"}, {"measurement": "kon", "setting": "[2]", "value": 69500, "unit": "M⁻¹ s⁻¹"}]}
